# Test results as given in EP1379283B1 (Palatin Technologies, Inc., dated 2002).
# Square brackets hold non-standard residues; d marks the D form. Nle = CCCC[C@H](N)C(=O)O
# B1: Ac-Nle-Ala-His-D-Phe-Arg-Trp-NH2 (peptide)
# peptide: Ac-[Nle]AH[dF]RW-NH2
# notes: Linear parent peptide, not complexed to a metal; also called parent melanocortin peptide
# Assays:
# [1] = biological target: T1, MC1-R of B-16 mouse melanoma cells (mouse, UniProt Q01727 1-315); assay: assay not described for this value
# T1 construct: whole, on cells; Membrane preparation; also called MCR-1
# T1 sequence (Q01727 whole entry): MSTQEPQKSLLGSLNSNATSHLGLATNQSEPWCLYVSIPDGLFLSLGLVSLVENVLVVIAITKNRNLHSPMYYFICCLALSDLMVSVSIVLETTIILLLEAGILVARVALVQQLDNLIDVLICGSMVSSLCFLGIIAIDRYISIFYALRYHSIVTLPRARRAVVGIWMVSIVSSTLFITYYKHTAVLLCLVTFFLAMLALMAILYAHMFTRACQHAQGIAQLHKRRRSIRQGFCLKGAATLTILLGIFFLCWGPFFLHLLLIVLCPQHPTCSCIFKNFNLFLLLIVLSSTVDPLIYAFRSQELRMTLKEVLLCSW
# hMC4-R = biological target: T2, hMC4-R (human, UniProt P32245 1-332); assay: assay not described for this value
# T2 construct: whole, on cells; Membrane preparation; also called MCR-4
# T2 sequence (P32245 whole entry): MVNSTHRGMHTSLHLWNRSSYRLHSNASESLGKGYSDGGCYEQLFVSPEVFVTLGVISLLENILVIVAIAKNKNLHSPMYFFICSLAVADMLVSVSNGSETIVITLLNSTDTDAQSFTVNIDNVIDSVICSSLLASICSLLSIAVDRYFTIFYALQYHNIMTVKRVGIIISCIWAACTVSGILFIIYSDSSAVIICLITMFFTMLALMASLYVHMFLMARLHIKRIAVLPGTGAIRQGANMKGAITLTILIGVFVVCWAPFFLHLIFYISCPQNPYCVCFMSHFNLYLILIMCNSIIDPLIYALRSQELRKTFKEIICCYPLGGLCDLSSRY
binder,measurement,setting,value
B1,Ki,[1],0.1 µM
same,Ki,hMC4-R,2 µM
